Drawing on patent US6709838 (Genentech, dated 2004), this text covers Kd for two molecules.

The target in this assay is T1, human Ptch-2 (SEQ ID NO:2), overexpressed on transfected human 293 embryonic kidney cells (human, UniProt Q9Y6C5 1-1203).
T1 construct: also called Patched-2; patched-2
T1 sequence: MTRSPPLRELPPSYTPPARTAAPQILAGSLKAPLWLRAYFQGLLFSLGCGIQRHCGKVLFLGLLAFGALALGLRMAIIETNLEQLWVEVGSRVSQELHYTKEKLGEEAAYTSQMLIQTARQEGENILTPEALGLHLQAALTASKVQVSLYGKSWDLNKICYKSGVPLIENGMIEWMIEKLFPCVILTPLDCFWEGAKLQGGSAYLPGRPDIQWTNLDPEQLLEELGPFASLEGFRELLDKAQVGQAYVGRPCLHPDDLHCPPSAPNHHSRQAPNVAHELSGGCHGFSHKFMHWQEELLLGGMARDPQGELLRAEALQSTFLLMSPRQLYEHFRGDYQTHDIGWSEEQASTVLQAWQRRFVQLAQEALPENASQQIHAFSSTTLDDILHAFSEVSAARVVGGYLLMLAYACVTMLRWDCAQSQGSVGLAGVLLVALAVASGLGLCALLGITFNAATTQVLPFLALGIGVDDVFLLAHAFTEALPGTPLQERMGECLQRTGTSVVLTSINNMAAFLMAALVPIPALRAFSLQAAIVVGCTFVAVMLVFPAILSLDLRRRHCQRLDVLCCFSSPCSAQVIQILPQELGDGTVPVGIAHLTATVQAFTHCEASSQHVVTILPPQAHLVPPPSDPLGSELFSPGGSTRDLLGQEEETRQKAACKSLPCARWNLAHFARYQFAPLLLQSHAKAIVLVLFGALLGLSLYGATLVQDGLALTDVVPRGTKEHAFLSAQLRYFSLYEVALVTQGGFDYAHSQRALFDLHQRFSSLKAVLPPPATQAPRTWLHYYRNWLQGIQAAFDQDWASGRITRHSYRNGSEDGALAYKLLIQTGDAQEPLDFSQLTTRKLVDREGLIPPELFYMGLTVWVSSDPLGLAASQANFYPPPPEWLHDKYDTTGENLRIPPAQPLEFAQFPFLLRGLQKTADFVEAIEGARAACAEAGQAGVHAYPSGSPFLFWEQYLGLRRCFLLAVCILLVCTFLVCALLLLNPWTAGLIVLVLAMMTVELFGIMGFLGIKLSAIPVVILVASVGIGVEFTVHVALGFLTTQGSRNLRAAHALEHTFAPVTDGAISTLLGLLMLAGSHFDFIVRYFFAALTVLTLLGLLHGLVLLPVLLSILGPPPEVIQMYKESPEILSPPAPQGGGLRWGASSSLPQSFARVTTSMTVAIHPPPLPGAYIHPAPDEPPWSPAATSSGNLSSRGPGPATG
The assay can be described thus: Scatchard analysis of 125I-Shh displacement curves, 293 cells expressing Ptch-2.

B1: Dhh (SEQ ID NO:13) (ligand)
chain: not shown
notes: also called Desert Hh; Desert hedgehog
B1 had a Kd of 0.6 nM.

B2: Ihh (SEQ ID NO:29) (ligand)
chain: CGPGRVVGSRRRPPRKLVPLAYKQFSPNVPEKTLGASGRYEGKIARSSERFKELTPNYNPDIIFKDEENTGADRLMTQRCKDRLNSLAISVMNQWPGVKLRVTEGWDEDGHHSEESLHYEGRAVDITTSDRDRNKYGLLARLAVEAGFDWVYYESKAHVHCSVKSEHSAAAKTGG
notes: also called Indian Hh
The molecule B2 showed a Kd of 0.4 nM.
